± gives the standard deviation of the averaged measurements.
Test system: Saccharomyces cerevisiae
Assay: protein stability index of tFT-peptide fusion (C-terminal peptide) (PSI (0-1 scale)); higher = more stable (slower turnover)
Conditions: temperature: 30 C
Experimental: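 MPS profiling in S. cerevisiae of the yeast C-terminome library: the last 12 aa of each annotated ORF are fused to the C-terminus of a sfGFP-mCherry timer, after a GGGS linker. Cells are FACS-sorted into 8 mCherry/sfGFP bins and deep-sequenced. PSI runs from 0 (unstable) to 1 (stable); wild type and das1Δ backgrounds, two technical replicates each.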

[1] = genetic background: das1 deletion

Sequence | protein stability index [1] | protein stability index (genetic background: wild type)
HGNWSRVVTDLN [BAT2 C-terminal 12 aa] | 0.6869 ± 0.0056 | 0.722 ± 0.1
HLENELKDQQEL [ATM1 C-terminal 12 aa] | 0.718 ± 0.0099 | 0.715 ± 0.017
HLPKATSLPYEK [YER097W C-terminal 12 aa] | 0.677 ± 0.0085 | 0.679 ± 0.055
HPWFAEYYHHAS [PHO85 C-terminal 12 aa] | 0.7438 ± 0.0043 | 0.7174 ± 0.0026
HRSFFKDIIPEL [KIN82 C-terminal 12 aa] | 0.723 ± 0.013 | 0.693 ± 0.022
IAEGKSVGIIGA [HXK2 C-terminal 12 aa] | 0.694 ± 0.022 | 0.682 ± 0.018
IAKEHDKIPKFL [INA22 C-terminal 12 aa] | 0.695 ± 0.027 | 0.672 ± 0.06
IASKNNWLPLQW [SIW14 C-terminal 12 aa] | 0.73114 ± 0.00013 | 0.732 ± 0.045
IDDEDVVSLFAK [RBG2 C-terminal 12 aa] | 0.714 ± 0.035 | 0.732 ± 0.057
IEEAASSLGFKR [PES4 C-terminal 12 aa] | 0.726 ± 0.027 | 0.701 ± 0.023
IEELTDTLNSTI [PEX29 C-terminal 12 aa] | 0.7059 ± 0.0039 | 0.698 ± 0.024
IEQSFGVIEYFP [SCW11 C-terminal 12 aa] | 0.717 ± 0.037 | 0.71 ± 0.011
IFHELKRQNSKN [RGD2 C-terminal 12 aa] | 0.739 ± 0.035 | 0.717 ± 0.052
IFVYPLFLLSTF [YEL053W-A C-terminal 12 aa] | 0.482 ± 0.051 | 0.335 ± 0.0099
IGTLIPEPGVNV [DAP1 C-terminal 12 aa] | 0.6825 ± 0.0027 | 0.676 ± 0.032
IHCRSQNCLSLS [VBA4 C-terminal 12 aa] | 0.687 ± 0.024 | 0.681 ± 0.016
IHKENKEFYLIL [YGL118C C-terminal 12 aa] | 0.703 ± 0.015 | 0.6731 ± 0.00094
IIDELEQIALQQ [BRE2 C-terminal 12 aa] | 0.69735 ± 0.00015 | 0.748 ± 0.04
IIDELQKCHMQE [CDC27 C-terminal 12 aa] | 0.706 ± 0.0081 | 0.6895 ± 0.0016
IKCKMPWSSPRQ [YOR238W C-terminal 12 aa] | 0.705 ± 0.03 | 0.744 ± 0.032
ILDLDPRTEAYC [YGL260W C-terminal 12 aa] | 0.733 ± 0.02 | 0.691 ± 0.013

Sequence | protein stability index [1] | protein stability index (genetic background: wild type)
ILDMFAKRWILS [IZH3 C-terminal 12 aa] | 0.697 ± 0.015 | 0.552 ± 0.043
ILDSFEEWSDEE [HDA1 C-terminal 12 aa] | 0.7224 ± 0.0053 | 0.688 ± 0.0073
ILFSFFCNLVAK [VTC4 C-terminal 12 aa] | 0.524 ± 0.011 | 0.4997 ± 0.0011
ILKKNPDYREEE [RPN1 C-terminal 12 aa] | 0.696 ± 0.0054 | 0.7029 ± 0.0058
ILTLVETLSEQE [VMA22 C-terminal 12 aa] | 0.704 ± 0.009 | 0.7049 ± 0.0056
INDKYKSNRTDS [ATG2 C-terminal 12 aa] | 0.697 ± 0.022 | 0.7162 ± 0.00084
INGIIDPSELSD [ALO1 C-terminal 12 aa] | 0.69 ± 0.029 | 0.68 ± 0.0073
INIVVDMLASQH [RMD1 C-terminal 12 aa] | 0.606 ± 0.025 | 0.591 ± 0.011
IPLVISYCISEE [ATX2 C-terminal 12 aa] | 0.575 ± 0.013 | 0.596 ± 0.024
IPNIFGKFTVTS [YKL091C C-terminal 12 aa] | 0.697 ± 0.0085 | 0.683 ± 0.013
IQAMLKSLDSLK [SNL1 C-terminal 12 aa] | 0.691 ± 0.034 | 0.66 ± 0.03
IQEDSPVMDNNT [FAP1 C-terminal 12 aa] | 0.722 ± 0.041 | 0.674 ± 0.036
IQVVKSKVLNIE [YDR248C C-terminal 12 aa] | 0.691 ± 0.028 | 0.653 ± 0.016
IRSLPLPFPHMD [MIG1 C-terminal 12 aa] | 0.723 ± 0.0091 | 0.757 ± 0.053
IVNVMFCLVRGF [DSC3 C-terminal 12 aa] | 0.42 ± 0.021 | 0.404 ± 0.03
IVTKMDLLSYLA [CYS4 C-terminal 12 aa] | 0.674 ± 0.013 | 0.478 ± 0.0082
IWCAPTVDARPI [NIT1 C-terminal 12 aa] | 0.7229 ± 0.0014 | 0.6998 ± 0.0015
IYENDPNTKKNN [ERG3 C-terminal 12 aa] | 0.736 ± 0.022 | 0.72 ± 0.049
KAASLSLKSTKY [PRP5 C-terminal 12 aa] | 0.71161 ± 0.00019 | 0.673 ± 0.013
KADIACAGKQLI [YHL042W C-terminal 12 aa] | 0.676 ± 0.0096 | 0.698 ± 0.0097
KADNWKCKIQSA [GDA1 C-terminal 12 aa] | 0.69 ± 0.018 | 0.641 ± 0.011

Sequence | protein stability index [1] | protein stability index (genetic background: wild type)
KAERCQYRLVTA [YCR025C C-terminal 12 aa] | 0.475 ± 0.031 | 0.508 ± 0.012
KAFFISKTLPCI [YLR112W C-terminal 12 aa] | 0.7141 ± 0.0031 | 0.766 ± 0.07
KAMILTSYRYLE [CLP1 C-terminal 12 aa] | 0.675 ± 0.035 | 0.677 ± 0.056
KCVNCGHRWKEN [RPC11 C-terminal 12 aa] | 0.708 ± 0.012 | 0.616 ± 0.02
KDFQVNKEIKPY [SIR4 C-terminal 12 aa] | 0.713 ± 0.052 | 0.7378 ± 0.00099
KDGDVVYDNGFM [CHS7 C-terminal 12 aa] | 0.7085 ± 0.007 | 0.692 ± 0.01
KDINLSEGNENE [URA8 C-terminal 12 aa] | 0.6774 ± 0.005 | 0.666 ± 0.067
KDKKKDKSNSSI [HMO1 C-terminal 12 aa] | 0.7022 ± 0.0049 | 0.691 ± 0.052
KDSIKLLDKARL [MSS2 C-terminal 12 aa] | 0.774 ± 0.021 | 0.781 ± 0.085
KDVIEEALSRFG [UTP7 C-terminal 12 aa] | 0.704 ± 0.0086 | 0.677 ± 0.027
KEKSESLQEEIN [YET3 C-terminal 12 aa] | 0.691 ± 0.0081 | 0.71 ± 0.032
KFDKALYKKTTG [YMR206W C-terminal 12 aa] | 0.712 ± 0.038 | 0.669 ± 0.03
KFKIQNILNSTF [SIP4 C-terminal 12 aa] | 0.714 ± 0.011 | 0.711 ± 0.0095
KGLFWDPACVIA [MFA2 C-terminal 12 aa] | 0.731 ± 0.022 | 0.728 ± 0.029
KGLQTVVVEEDA [RPL31A C-terminal 12 aa] | 0.6888 ± 0.0012 | 0.683 ± 0.0082
KHASELSSNSKF [CTA1 C-terminal 12 aa] | 0.702 ± 0.029 | 0.681 ± 0.048
KHDVLSTLPHNN [SKO1 C-terminal 12 aa] | 0.7043 ± 0.0056 | 0.687 ± 0.011
KHKNILLFNNNT [YAL068W-A C-terminal 12 aa] | 0.699 ± 0.011 | 0.686 ± 0.017
KHVMMDMQQPSQ [MRPS17 C-terminal 12 aa] | 0.699 ± 0.022 | 0.674 ± 0.027
KILVFDKNLMNR [YLR154W-E C-terminal 12 aa] | 0.699 ± 0.0098 | 0.688 ± 0.019
KKDFNEDDSLFG [VPS55 C-terminal 12 aa] | 0.722 ± 0.013 | 0.694 ± 0.0072

Sequence | protein stability index [1] | protein stability index (genetic background: wild type)
KKKRNKNKKAGK [ETP1 C-terminal 12 aa] | 0.691 ± 0.023 | 0.698 ± 0.014
KKKSKSSKKVKV [ESF1 C-terminal 12 aa] | 0.707 ± 0.017 | 0.653 ± 0.0087
KKQLLPSKTVDN [HED1 C-terminal 12 aa] | 0.688 ± 0.013 | 0.66 ± 0.04
KKRDPITGEVFE [ERG5 C-terminal 12 aa] | 0.6849 ± 0.0021 | 0.667 ± 0.016
KLDVDDEENEGF [MRD1 C-terminal 12 aa] | 0.684 ± 0.029 | 0.653 ± 0.011
KLENESLPNLSG [TRI1 C-terminal 12 aa] | 0.691 ± 0.013 | 0.685 ± 0.016
KNEELSKKHFSK [ROK1 C-terminal 12 aa] | 0.718 ± 0.013 | 0.74 ± 0.12
KPPKNKYKVVRR [SEC65 C-terminal 12 aa] | 0.714 ± 0.03 | 0.681 ± 0.0014
KQKDKEKNALLL [YBR113W C-terminal 12 aa] | 0.689 ± 0.016 | 0.6802 ± 0.0029
KRKRRKVRARSK [RPL41A C-terminal 12 aa] | 0.7678 ± 0.006 | 0.764 ± 0.066
KSASSSPAPKDT [TRM10 C-terminal 12 aa] | 0.693 ± 0.013 | 0.708 ± 0.011
KTDPNEPANDYR [DLD1 C-terminal 12 aa] | 0.6799 ± 0.00072 | 0.686 ± 0.032
KTFSYKRPSTFY [RPL20A C-terminal 12 aa] | 0.6745 ± 0.0049 | 0.732 ± 0.039
KTGKEVRSGKQL [ATX1 C-terminal 12 aa] | 0.689 ± 0.0069 | 0.679 ± 0.022
KTYLNFADNGQI [ELM1 C-terminal 12 aa] | 0.675 ± 0.0079 | 0.721 ± 0.062
KVESSDCSFEFA [VID24 C-terminal 12 aa] | 0.6988 ± 0.0069 | 0.696 ± 0.011
KVNENWKRYGYK [FDC1 C-terminal 12 aa] | 0.6814 ± 0.0052 | 0.703 ± 0.027
KYGIYLKEKTVA [LYS9 C-terminal 12 aa] | 0.663 ± 0.013 | 0.4895 ± 0.0018
KYILAWLRKVLL [YFL012W-A C-terminal 12 aa] | 0.651 ± 0.031 | 0.456 ± 0.013

Reference: the supplement of paper PMC10724198
